Measurements reported in the supplement of paper PMC7877785.
± gives the uncertainty stated by the source.

Assay: self-splicing fitness, log relative to wild type (ln ratio); higher = more splicing; Tetrahymena group I intron in knt gene, E. coli kanamycin selection, DiMSum; sequences stand for … in CUCUCU…GGAGGGAAAAGUUAUCAGGCAUGCACCUGGUAGCUAGUCUUUAAACCAAUAGAUUGCAUCGGUUUAAAAGGCAAGACCGUCAAAUUGCGGGAAAGGGGUCAACAGCCGUUCAGUACCAAGUCUCAGGGGAAACUUUGAGAUGGCCUUGCAAAGGGUAUGGUAAUAAGCUGACGGACAUGGUCCUAACCACGCAGCCAAGUCCUAAGUCAACAGAUCUUCUGUUGAUAUGGAUGCAGUUCACAGACUAAAUGUCGGUCGGGGAAGAUGUAUUCUUCUCAUAAGAUAUAGUCGGACCUCUCCUUAAUGGGAGCUAGCGGAUGAAGUGAUGCAACACUGGAGCCGCUGGGAACUAAUUUGUAUGCGAAAGUAUAUUGAUUAGUUUUGGAGUACUCGUGGUCG
How it was run: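 Six replicate transformations of E. coli BL21(DE3) with a pET-22b(+) library were grown overnight at 37°C or 30°C. The library randomised all eight P1ex-region intron nucleotides, the intron lying in the knt kanamycin-resistance gene, and plates were LB agar with or without 25 μg/mL kanamycin plus 100 μg/mL carbenicillin, 50 μM IPTG and 0.2% rhamnose. Pooled colonies were amplicon-sequenced on an Illumina HiSeq 2500, and fitness is the DiMSum error-weighted combination of wild-type-normalised replicate fold changes, kanamycin versus none.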

Sequence | self-splicing fitness (ln) (30 °C) | self-splicing fitness (ln) (37 °C)
GUGCAGCAAUAUUACGUAGC | -1.44 ± 0.17 | -0.976 ± 0.16
GUGCAGCAAUAUUACGUAGU | -1.37 ± 0.083 | -0.784 ± 0.12
GUGCAGCAAUAUUACGUCUC | -0.469 ± 0.084 | 0.48 ± 0.11
GUGCAGCAAUAUUACGUGAC | -1.86 ± 0.14 | -1.33 ± 0.14
GUGCAGCAAUAUUACGUGCU | -3.49 ± 0.32 | -2.35 ± 0.35
GUGCAGCAAUAUUACGUGGC | -3.55 ± 0.27 | -1.8 ± 0.15
GUGCAGCAAUAUUACGUUGU | -3.71 ± 0.17 | -2.56 ± 0.17
GUGCAGCAAUAUUACGUUUA | -0.737 ± 0.11 | -0.75 ± 0.12
GUGGAGCAAUAUUACGAACA | -2.19 ± 0.46 | -0.866 ± 0.45
GUGGAGCAAUAUUACGAACG | -2.43 ± 0.43 | -1.53 ± 0.41
GUGGAGCAAUAUUACGAAUC | -3.4 ± 0.24 | -1.43 ± 0.26
GUGGAGCAAUAUUACGACUU | -2.79 ± 0.34 | -0.283 ± 0.24
GUGGAGCAAUAUUACGAGCA | -2.49 ± 0.34 | -1.93 ± 0.39
GUGGAGCAAUAUUACGAGUG |  | -1.74 ± 0.36
GUGGAGCAAUAUUACGAUCC | -2.49 ± 0.2 | -1.13 ± 0.28
GUGGAGCAAUAUUACGCCCU | -1.79 ± 0.32 | -1.87 ± 0.26
GUGGAGCAAUAUUACGCCUU | -2.3 ± 0.31 | -1.09 ± 0.22
GUGGAGCAAUAUUACGCGAA | -3 ± 0.39 | -1.09 ± 0.27
GUGGAGCAAUAUUACGCUAA | -2.72 ± 0.25 | -1.6 ± 0.19
GUGGAGCAAUAUUACGCUAG | -3.24 ± 0.19 | -2.36 ± 0.2
GUGGAGCAAUAUUACGCUCA | -1.19 ± 0.26 | -1.1 ± 0.26
GUGGAGCAAUAUUACGGAGC | -2.43 ± 0.2 | -0.177 ± 0.25
GUGGAGCAAUAUUACGGCAC | -1.39 ± 0.19 | -0.386 ± 0.31
GUGGAGCAAUAUUACGGUGA |  | -1.81 ± 0.49
GUGGAGCAAUAUUACGUAAG | -3.04 ± 0.26 | -1.21 ± 0.47

Sequence | self-splicing fitness (ln) (30 °C) | self-splicing fitness (ln) (37 °C)
GUGGAGCAAUAUUACGUAGC | 0.305 ± 0.33 | 
GUGGAGCAAUAUUACGUAGU | -2.93 ± 0.24 | -0.993 ± 0.27
GUGGAGCAAUAUUACGUCAC | -3.5 ± 0.39 | -1.99 ± 0.26
GUGGAGCAAUAUUACGUCCG | -3.12 ± 0.33 | -1.01 ± 0.33
GUGGAGCAAUAUUACGUCGG | -3.08 ± 0.22 | -2.35 ± 0.2
GUGGAGCAAUAUUACGUGAC |  | 1.74 ± 0.35
GUGGAGCAAUAUUACGUGGU | -2.9 ± 0.27 | -2.51 ± 0.28
GUGGAGCAAUAUUACGUUCA | -1.02 ± 0.11 | -0.668 ± 0.11
GUGUAGCAAUAUUACGAAGA |  | -1.38 ± 0.39
GUGUAGCAAUAUUACGAAGU | -2.86 ± 0.34 | -1.67 ± 0.25
GUGUAGCAAUAUUACGACUA | -0.34 ± 0.11 | 0.0605 ± 0.12
GUGUAGCAAUAUUACGAGAC | -3.58 ± 0.42 | -2.4 ± 0.16
GUGUAGCAAUAUUACGAGGU | -2.33 ± 0.44 | -1.61 ± 0.49
GUGUAGCAAUAUUACGAUCG | -1.94 ± 0.22 | 0.634 ± 0.17
GUGUAGCAAUAUUACGAUUU | -1.98 ± 0.19 | 0.0419 ± 0.25
GUGUAGCAAUAUUACGCAGG |  | -2.3 ± 0.32
GUGUAGCAAUAUUACGCCAU | -3.15 ± 0.29 | -1.51 ± 0.22
GUGUAGCAAUAUUACGCCUG | -3.94 ± 0.25 | -0.863 ± 0.13
GUGUAGCAAUAUUACGCCUU | -2.63 ± 0.39 | -2.56 ± 0.37
GUGUAGCAAUAUUACGCGAU | -3.21 ± 0.26 | -1.96 ± 0.26
GUGUAGCAAUAUUACGCGCU |  | -1.27 ± 0.18
GUGUAGCAAUAUUACGCGGU | -2.85 ± 0.34 | -0.66 ± 0.41
GUGUAGCAAUAUUACGCUCA | -0.291 ± 0.21 | 0.47 ± 0.33
GUGUAGCAAUAUUACGCUGU | -2.96 ± 0.2 | -3.45 ± 0.39
GUGUAGCAAUAUUACGCUUA | -1.45 ± 0.29 | 0.408 ± 0.25

Sequence | self-splicing fitness (ln) (30 °C) | self-splicing fitness (ln) (37 °C)
GUGUAGCAAUAUUACGGGAG | -3.55 ± 0.2 | -2.88 ± 0.18
GUGUAGCAAUAUUACGGGGA | -1.9 ± 0.28 | -2.41 ± 0.25
GUGUAGCAAUAUUACGGGUG | -2.72 ± 0.14 | -1.13 ± 0.13
GUGUAGCAAUAUUACGGUAC | -2.1 ± 0.22 | -1.43 ± 0.25
GUGUAGCAAUAUUACGGUUC | -1.04 ± 0.13 | -0.373 ± 0.16
GUGUAGCAAUAUUACGUAUG | -3.21 ± 0.23 | -2.78 ± 0.27
GUGUAGCAAUAUUACGUCGC | -2.48 ± 0.26 | 
GUGUAGCAAUAUUACGUCUU | 0.202 ± 0.18 | -0.00398 ± 0.18
GUGUAGCAAUAUUACGUUUA | -2.51 ± 0.23 | -2.01 ± 0.15
GUUAAGCAAUAUUACGAAAA | -1.13 ± 0.27 | -2.1 ± 0.24
GUUAAGCAAUAUUACGAGGU |  | -2.51 ± 0.34
GUUAAGCAAUAUUACGAGUG | -2.69 ± 0.14 | -1.84 ± 0.16
GUUAAGCAAUAUUACGAUGG |  | -1.77 ± 0.23
GUUAAGCAAUAUUACGCAGU | -1.74 ± 0.24 | -2.55 ± 0.23
GUUAAGCAAUAUUACGCCAG | -3.1 ± 0.23 | -2.75 ± 0.28
GUUAAGCAAUAUUACGCCUA | -0.752 ± 0.11 | -0.139 ± 0.11
GUUAAGCAAUAUUACGCGGU | -3.3 ± 0.22 | -2.65 ± 0.2
GUUAAGCAAUAUUACGCGUG | -0.781 ± 0.1 | -0.78 ± 0.099
GUUAAGCAAUAUUACGCUAA | -2.35 ± 0.14 | -1.54 ± 0.15
GUUAAGCAAUAUUACGGCAA | 0.045 ± 0.2 | -0.394 ± 0.22
GUUAAGCAAUAUUACGGCUC | 0.46 ± 0.2 | -0.6 ± 0.21
GUUAAGCAAUAUUACGGGAG | -3.17 ± 0.14 | -1.63 ± 0.097
GUUAAGCAAUAUUACGGUUU | -0.85 ± 0.094 | -1.5 ± 0.12
GUUAAGCAAUAUUACGUAGC | -2.84 ± 0.19 | -1.86 ± 0.26
GUUAAGCAAUAUUACGUAGU | -2.06 ± 0.16 | -0.895 ± 0.14

Sequence | self-splicing fitness (ln) (30 °C) | self-splicing fitness (ln) (37 °C)
GUUAAGCAAUAUUACGUCAU | -1.5 ± 0.1 | -0.179 ± 0.12
GUUAAGCAAUAUUACGUGUA | -2.09 ± 0.098 | -0.751 ± 0.091
GUUAAGCAAUAUUACGUUAG | -2.47 ± 0.13 | -1.32 ± 0.14
GUUCAGCAAUAUUACGAAAC | -1.48 ± 0.23 | -0.734 ± 0.22
GUUCAGCAAUAUUACGAAGA | -0.456 ± 0.086 | 0.147 ± 0.1
GUUCAGCAAUAUUACGAAGG | -1.55 ± 0.2 | -0.421 ± 0.23
GUUCAGCAAUAUUACGAGCG | -2.03 ± 0.13 | -1.31 ± 0.15
GUUCAGCAAUAUUACGAGCU | -3.34 ± 0.32 | -3.72 ± 0.39
GUUCAGCAAUAUUACGAGGA | -3.54 ± 0.27 | -2.18 ± 0.26
GUUCAGCAAUAUUACGAUCC | -1.37 ± 0.12 | -1.05 ± 0.14
GUUCAGCAAUAUUACGCAAG | -0.984 ± 0.093 | -0.654 ± 0.12
GUUCAGCAAUAUUACGCAUU | -0.22 ± 0.06 | 0.414 ± 0.078
GUUCAGCAAUAUUACGCGGC |  | -2.94 ± 0.43
GUUCAGCAAUAUUACGGACC |  | -2.8 ± 0.38
GUUCAGCAAUAUUACGGUCG | -0.812 ± 0.099 | -0.788 ± 0.15
GUUCAGCAAUAUUACGUAUC | -0.532 ± 0.089 | -0.756 ± 0.1
GUUCAGCAAUAUUACGUCCG | 0.0188 ± 0.43 | 
GUUCAGCAAUAUUACGUCGA | -0.842 ± 0.15 | -0.398 ± 0.13
GUUCAGCAAUAUUACGUGAU | -0.367 ± 0.049 | 0.43 ± 0.068
GUUCAGCAAUAUUACGUGGC | -2.08 ± 0.1 | -2.25 ± 0.16
GUUCAGCAAUAUUACGUGUU | -1.84 ± 0.08 | 0.0147 ± 0.089
GUUGAGCAAUAUUACGAACU |  | -1.61 ± 0.27
GUUGAGCAAUAUUACGACCC |  | -0.607 ± 0.49
GUUGAGCAAUAUUACGACGG | -3.52 ± 0.3 | -1.12 ± 0.28
GUUGAGCAAUAUUACGAGUC | -3.09 ± 0.28 | -0.0995 ± 0.16
